Paper PMC5493754, “Myosin 7 and its adaptors link cadherins to actin” (Nature Communications, 2017)

T1: Myo7a MF1.SH3 (Mus musculus, UniProt P97479)
T1 chain: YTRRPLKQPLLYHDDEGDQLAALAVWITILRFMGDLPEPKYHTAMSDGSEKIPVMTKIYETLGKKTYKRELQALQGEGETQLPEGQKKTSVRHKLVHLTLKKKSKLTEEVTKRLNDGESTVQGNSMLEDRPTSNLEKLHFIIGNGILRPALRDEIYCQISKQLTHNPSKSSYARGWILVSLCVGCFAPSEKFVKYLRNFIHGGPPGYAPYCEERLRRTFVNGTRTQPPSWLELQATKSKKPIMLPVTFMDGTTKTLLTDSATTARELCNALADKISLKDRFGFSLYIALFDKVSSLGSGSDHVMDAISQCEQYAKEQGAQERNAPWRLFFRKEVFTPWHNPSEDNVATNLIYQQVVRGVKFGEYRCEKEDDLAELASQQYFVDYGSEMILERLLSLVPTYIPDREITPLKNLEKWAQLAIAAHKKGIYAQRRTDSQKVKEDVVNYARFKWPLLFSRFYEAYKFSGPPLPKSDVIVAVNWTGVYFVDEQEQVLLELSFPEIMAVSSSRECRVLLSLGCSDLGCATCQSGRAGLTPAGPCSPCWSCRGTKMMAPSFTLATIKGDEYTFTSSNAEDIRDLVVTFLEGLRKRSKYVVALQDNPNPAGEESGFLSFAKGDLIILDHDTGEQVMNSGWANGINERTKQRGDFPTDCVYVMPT

T2: YFP-Full length (FL)-harmonin (harmonin-a1) (human, UniProt Q9Y6N9-1 1-552)
T2 construct: Harmonin-a1 (USH1C), human, residues 1-552 of UniProt Q9Y6N9-1; also called ^YFPFL (isoA); ^YFPFL; source: E. coli BL21 (DE3) Rosetta, purified (Glutathione Sepharose 4B, size-exclusion chromatography)
T2 sequence (looked up): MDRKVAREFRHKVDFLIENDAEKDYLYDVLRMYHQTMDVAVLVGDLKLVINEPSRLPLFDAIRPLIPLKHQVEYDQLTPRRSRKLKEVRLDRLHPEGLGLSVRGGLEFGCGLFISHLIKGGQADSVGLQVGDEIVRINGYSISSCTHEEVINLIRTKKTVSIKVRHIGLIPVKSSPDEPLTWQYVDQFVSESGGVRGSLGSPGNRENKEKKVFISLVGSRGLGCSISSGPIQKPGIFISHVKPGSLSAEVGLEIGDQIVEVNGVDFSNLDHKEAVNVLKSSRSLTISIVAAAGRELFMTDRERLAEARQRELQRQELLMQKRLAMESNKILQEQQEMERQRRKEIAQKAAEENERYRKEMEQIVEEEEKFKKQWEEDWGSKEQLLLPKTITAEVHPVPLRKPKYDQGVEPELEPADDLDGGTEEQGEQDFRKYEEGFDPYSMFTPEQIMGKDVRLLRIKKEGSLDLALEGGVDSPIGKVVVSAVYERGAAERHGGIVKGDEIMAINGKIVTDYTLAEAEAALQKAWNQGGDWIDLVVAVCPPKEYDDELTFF

T3: Myosin 7b MF1.SH3 (human, UniProt Q6PIF6 958-1586)
T3 construct: also called M7b MF1.SH3; Myo7b MF1.SH3; source: E. coli (BL21-AI, BL21 (DE3) Rosetta or BL21-Gold (DE3)), purified (Histrap, CaptoQ, gel filtration)
T3 sequence: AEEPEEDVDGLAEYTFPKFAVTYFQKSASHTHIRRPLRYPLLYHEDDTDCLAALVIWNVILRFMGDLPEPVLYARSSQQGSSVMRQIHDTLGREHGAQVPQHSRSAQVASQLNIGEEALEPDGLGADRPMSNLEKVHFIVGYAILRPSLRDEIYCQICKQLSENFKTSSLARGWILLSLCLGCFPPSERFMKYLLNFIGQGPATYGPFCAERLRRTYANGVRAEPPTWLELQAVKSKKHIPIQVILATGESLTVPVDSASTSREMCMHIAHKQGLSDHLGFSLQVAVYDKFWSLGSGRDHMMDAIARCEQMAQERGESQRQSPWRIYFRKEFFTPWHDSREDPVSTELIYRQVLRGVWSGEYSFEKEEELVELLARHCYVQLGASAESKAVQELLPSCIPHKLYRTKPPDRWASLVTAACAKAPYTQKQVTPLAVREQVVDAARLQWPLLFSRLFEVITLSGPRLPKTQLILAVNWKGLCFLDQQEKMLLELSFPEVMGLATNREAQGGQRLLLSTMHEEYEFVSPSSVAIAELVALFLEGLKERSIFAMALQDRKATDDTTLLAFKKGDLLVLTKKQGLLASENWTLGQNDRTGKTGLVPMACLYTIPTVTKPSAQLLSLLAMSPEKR

T4: Myosin 7a MF1.SH3 (human, UniProt Q13402-1 991-1692, residues 1523-1560 were deleted from MF1)
T4 construct: Myosin 7a, human, N-terminal MyTH4-FERM domain and SH3, residues 991-1692 of UniProt Q13402-1; residues 1523-1560 deleted; Thrombin site of the vector replaced by an SSG linker; also called M7a MF1.SH3; Myo7a MF1.SH3; source: E. coli (BL21-AI, BL21 (DE3) Rosetta or BL21-Gold (DE3)), purified (Histrap, CaptoQ, gel filtration)
T4 sequence (looked up): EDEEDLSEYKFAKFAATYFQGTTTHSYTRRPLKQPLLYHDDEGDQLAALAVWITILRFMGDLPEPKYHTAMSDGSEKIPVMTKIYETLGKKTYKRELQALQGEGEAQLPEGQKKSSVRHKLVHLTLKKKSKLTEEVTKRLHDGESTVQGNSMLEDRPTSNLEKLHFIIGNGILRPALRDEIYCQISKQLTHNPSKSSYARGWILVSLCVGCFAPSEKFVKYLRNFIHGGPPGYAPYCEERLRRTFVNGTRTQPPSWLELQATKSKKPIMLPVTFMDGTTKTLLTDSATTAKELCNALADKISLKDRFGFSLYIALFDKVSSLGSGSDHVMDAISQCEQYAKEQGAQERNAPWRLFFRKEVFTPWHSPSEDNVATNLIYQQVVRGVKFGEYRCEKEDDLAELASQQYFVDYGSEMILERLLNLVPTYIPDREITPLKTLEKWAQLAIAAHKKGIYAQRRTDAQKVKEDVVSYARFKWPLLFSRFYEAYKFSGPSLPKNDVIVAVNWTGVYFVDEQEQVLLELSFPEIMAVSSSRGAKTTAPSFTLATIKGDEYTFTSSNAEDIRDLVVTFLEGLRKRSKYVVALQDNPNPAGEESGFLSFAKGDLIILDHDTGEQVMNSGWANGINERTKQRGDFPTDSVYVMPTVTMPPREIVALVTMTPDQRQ

T5: YFP-Myosin 7b MF1.SH3 (human, UniProt Q6PIF6 958-1586)
T5 construct: Myosin 7b, human, MF1.SH3, residues 958-1586 of UniProt Q6PIF6; pET14-YFP vector; also called ^YFPM7b MF1.SH3; source: E. coli (BL21-AI, BL21 (DE3) Rosetta or BL21-Gold (DE3)), purified (Histrap, CaptoQ, gel filtration)
T5 sequence: T3 sequence

B1: ANKS4B CEN-PBM (protein)
chain: VEEDDDVQHESILNRPGLGSIVFSRNRVLDFEDISDSKRELGFKMPSELFQRQGAAGTVEEEEEEEEEEEEEKREANGTAGDLPWDEEEVEWEEDAVDATPLEVFLQSQHLEEFLPIFMREQIDLEALLLCSDEDLQNIHMQLGPRKKVLSAIDKRKQVLQQPGQLVDTSL
B2: Harmonin NPDZ1 (non-fluorescent, as used in MST and SEC-MALS) (domain or fragment, human, UniProt Q9Y6N9-1 1-197, looked up)
chain: MDRKVAREFRHKVDFLIENDAEKDYLYDVLRMYHQTMDVAVLVGDLKLVINEPSRLPLFDAIRPLIPLKHQVEYDQLTPRRSRKLKEVRLDRLHPEGLGLSVRGGLEFGCGLFISHLIKGGQADSVGLQVGDEIVRINGYSISSCTHEEVINLIRTKKTVSIKVRHIGLIPVKSSPDEPLTWQYVDQFVSESGGVRG
notes: Harmonin-a1 (USH1C), human, N-terminal domain and PDZ1, residues 1-197 of UniProt Q9Y6N9-1; source: E. coli BL21 (DE3) Rosetta, purified (Glutathione Sepharose 4B, size-exclusion chromatography)
B3: ANKS4B_(CEN-PBM) with YFP-harmonin NPDZ1.PDZ2 (complex)
chain 1: SVHHESILNRPGLGSIVFRRNRISSPEDISDSKREFGFKLPSELLQRQGASEADEGAADEEGEENGLKDDLPWDDDEVEWEEDVVDATPLEVFLLSQHLEEFLPIFKREQIDLEALLLCSDEDLQSIQMQLGPRKKVLNAINRRKQVLQQPGQLVDTSL
chain 2: MDRKVAREFRHKVDFLIENDAEKDYLYDVLRMYHQTMDVAVLVGDLKLVINEPSRLPLFDAIRPLIPLKHQVEYDQLTPRRSRKLKEVRLDRLHPEGLGLSVRGGLEFGCGLFISHLIKGGQADSVGLQVGDEIVRINGYSISSCTHEEVINLIRTKKTVSIKVRHIGLIPVKSSPDEPLTWQYVDQFVSESGGVRGSLGSPGNRENKEKKVFISLVGSRGLGCSISSGPIQKPGIFISHVKPGSLSAEVGLEIGDQIVEVNGVDFSNLDHKEAVNVLKSSRSLTISIVAAAGRELFMTDR
notes: ANKS4B, human, residues 259-417 of UniProt Q8N8V4; as m43; Harmonin-a1 (USH1C), human, residues 1-301 of UniProt Q9Y6N9-1; as m31; also called ANKS4b+^YFPNPDZ1.PDZ2; ^YFPNPDZ1.PDZ2+ANKS4B_(CEN-PBM); source: purified E. coli proteins mixed
B4: YFP-SANS_(CEN-PBM) saturated with harmonin NPDZ1.PDZ2 (complex)
chain 1: DSGHDSLFTRPGLGTMVFRRNYLSSGLHGLGREDGGLDGVGAPRGRLQSSPSLDDDSLGSANSLQDRSCGEELPWDELDLGLDEDLEPETSPLETFLASLHMEDFAALLRQEKIDLEALMLCSDLDLRSISVPLGPRKKILGAVRRRRQAMERPPALEDTEL
chain 2: B3 chain 2
notes: SANS (USH1G), residues 300-461 of UniProt Q495M9; as m40; Harmonin-a1 (USH1C), human, residues 1-301 of UniProt Q9Y6N9-1; as m30; also called ^YFPSANS_(CEN-PBM)+NPDZ1.PDZ2; source: purified E. coli proteins mixed (saturating NPDZ1.PDZ2); not shown: YFP, N-terminal, kept
B5: ANKS4B_(CEN-PBM) (domain or fragment)
chain: B3 chain 1
notes: ANKS4B, human, residues 259-417 of UniProt Q8N8V4; source: E. coli (BL21-AI, BL21 (DE3) Rosetta or BL21-Gold (DE3)), purified (Histrap, CaptoQ, gel filtration)
B6: SANS_(CEN-PBM) (domain or fragment, UniProt Q495M9 300-461, looked up)
chain: B4 chain 1
notes: source: E. coli (BL21-AI, BL21 (DE3) Rosetta or BL21-Gold (DE3)), purified (Histrap, CaptoQ, gel filtration)

Legend:
Myo7a MF1.SH3 = target: T1, Myo7a MF1.SH3
SANS_(CEN-PBM) = target: B6; test: SEC-MALS; Superdex 10/300 Increase; 20 mM Tris pH 7.0, 100 mM NaCl, 1 mM EGTA, 0.5 mM TCEP; samples at about 20 mg/ml; details: both partners purified
[1] = target: T2, YFP-Full length (FL)-harmonin …; test: MST; as a1 but 150 mM NaCl (for FL-Harmonin-a); YFP-fused partner constant at 100 nM, non-fluorescent protein titrated; details: both partners purified
Myosin 7b MF1.SH3 = target: T3, Myosin 7b MF1.SH3; test: MST; YFP-fused partner held together with a third protein (saturating concentrations; competition experiments), non-fluorescent protein titrated; details: both partners purified
Myosin 7a MF1.SH3 [2] = target: T4, Myosin 7a MF1.SH3; test: as above; details: both partners purified
YFP-Myosin 7b MF1.SH3 = target: T5, YFP-Myosin 7b MF1.SH3; test: MST; YFP-fused partner constant at 100 nM, non-fluorescent protein titrated (16 two-fold dilutions); 20 mM Hepes pH 7.0, 100 mM NaCl, 1 mM EGTA, 0.5 mM TCEP, 0.05% Tween 20; Monolith NT.115; details: both partners purified
Myosin 7a MF1.SH3 [3] = target: T4, Myosin 7a MF1.SH3; test: SEC-MALS; Superdex 10/300 Increase; 20 mM Tris pH 7.0, 100 mM NaCl, 1 mM EGTA, 0.5 mM TCEP; samples at about 20 mg/ml; details: both partners purified

Binder: B1
Kd (Myo7a MF1.SH3): ~5 µM

Binder: B2
stoichiometry N (SANS_(CEN-PBM)): 1
Kd [1]: 11.3 µM

Binder: B3
Kd (Myosin 7b MF1.SH3): 4 µM

Binder: B4
Kd (Myosin 7a MF1.SH3 [2]): 386 nM

Binder: B5
Kd (YFP-Myosin 7b MF1.SH3): 2900 ± 30 nM

Binder: B6
stoichiometry N (Myosin 7a MF1.SH3 [3]): 1
